The supplement of paper PMC12764529
± gives the half width of the 95% confidence interval.

How the values were obtained:
[1] = folding stability dG unfold from trypsin proteolysis; higher = more stable
Method: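 Folding stability of de novo designed mini-proteins (<80 aa, no Cys; designed by TrROS, TrMRF, ProteinMPNN and the joint model) was measured by cDNA display proteolysis with trypsin and chymotrypsin. Each protease was used at 11 concentrations in a threefold dilution series plus a no-protease condition. K50 was inferred by Bayesian fitting of sequencing counts, and dG unfold was derived against a sequence-predicted unfolded-state K50 (Tsuboyama et al. method). Sequences shown include variable-length N-terminal GS-type padding (SAGGSAGG...) inside a display construct carrying a PA tag. Rows were kept only if the AF2 dimer inter-PAE was >15, to exclude likely homo-oligomers.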

[2] = folding stability dG unfold (combined trypsin and chymotrypsin); higher = more stable
In short: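 Designed mini-proteins with no cysteine and under 80 residues were kept only if AlphaFold2 dimer inter-PAE was above 15. In a PA-tagged cDNA display construct, they were digested with trypsin and chymotrypsin and then sequenced. K50 was inferred by Bayesian fitting of counts, and unfolding free energy was derived per protease or combined against a sequence-predicted unfolded-state K50 and a shared folded-state K50.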

Sequence | folding stability dG unfold [1] | folding stability dG unfold [2]
SAGGSAGGSAGGPVVNILVKHPNGKKETISVDVKEENIGEVATDILPKGYEVLEPSVFPGSAGGSAGGSAGG [r7_159_TrMRF] | -0.258 ± 0.1 kcal/mol | < -1 kcal/mol
SAGGSAGGSAGGSGGSMEVSISEAPPEYLVVTVYDPATGKTTVRKVSPSEVKSLKYEGGSAGGSAGGSAGGS [r4_494_JUSTAS] | 0.274 ± 0.053 kcal/mol | < -1 kcal/mol
SAGGSAGGSAGGSKKIIIPVGNKPIEITLHPDEIPEIHPETNYISIYLPKTNDVLILPVGSAGGSAGGSAGG [r7_7_TrMRF] | -0.0749 ± 0.051 kcal/mol | < -1 kcal/mol
SAGGSAGGSAGGSMGPVPVWITIKIPDKNGKPKRKIEIPMEGPNMTPSEIRKQAKPFIKSAGGSAGGSAGGS [r4_375_TrROS] | -0.281 ± 0.49 kcal/mol | < -1 kcal/mol
SAGGSAGGSAGGSMKVEKFTEIITTPDGKPELIVEKEKTTTPNGGTKTTVTKIIPAKLLSAGGSAGGSAGGS [r4_117_JUSTAS] | -0.306 ± 0.38 kcal/mol | < -1 kcal/mol
SAGGSAGGSAGGSMRYDIVEDPETGTVTINRYVVYPPGIEKKTEGEIVPASTVPPGDLLGSAGGSAGGSAGG [r7_455_JUSTAS] | -0.0505 ± 0.29 kcal/mol | < -1 kcal/mol
SAGGSAGGSAGGSPPTAKELVKELREKFPPGYPITIKHPDKTIRIMMNPGPGKFQVEIYSAGGSAGGSAGGS [r4_150_TrROS] | -0.236 ± 0.37 kcal/mol | < -1 kcal/mol
SAGGSAGGSAGGSQELTIKIPPGEPDVRIFFPDGGEEHEIPPGDEREIELSPDKIAVQPSAGGSAGGSAGGS [r10_46_TrROS] | 0.763 ± 0.059 kcal/mol | -0.148 ± 0.25 kcal/mol
SAGGSAGGSAGGSSRTIKLDGYKITVHPNSVHIYPPKNGKPVTVPMDNPEVQDLIKELISAGGSAGGSAGGS [r4_353_TrROS] | -1.19 ± 0.31 kcal/mol | < -1 kcal/mol
SAGGSAGGSAGGSSSLPLSTGTIPLEELEAQGGPIVEVTVLLFSGSSNRTIVMDLPPELVSAGGSAGGSAGG [r7_116_JUSTAS] | -0.372 ± 0.29 kcal/mol | -0.596 ± 0.31 kcal/mol
SAGGSAGGSAGGSSVPADTVVELEFKDEKGEPLLITVRVTTKDSGVDRTVLEVRPPELLSAGGSAGGSAGGS [r10_744_JUSTAS] | 0.00915 ± 0.05 kcal/mol | -0.424 ± 0.17 kcal/mol
SAGGSAGGSAGGSSVSSLSIKNPPSDPKGILSSVSPEGKVVLTTVNPDGSLTTTVVDVNSAGGSAGGSAGGS [r4_177_JUSTAS] | 0.787 ± 0.065 kcal/mol | 0.414 ± 0.2 kcal/mol
SAGGSAGGSAGGTKEFPIWFGGEPVKVTVEPDPDGQPKIEIEEPGGAEITIPPGGPLQFSAGGSAGGSAGGS [r10_989_TrROS] | 0.934 ± 0.061 kcal/mol | 0.343 ± 0.21 kcal/mol
SAGGSAGGSAGGTKVIPFDSVEEILEEVKKDPNKPRYIRMPGAWIKINKPGDITEIEPWPSAGGSAGGSAGG [r7_532_TrROS] | -0.655 ± 0.46 kcal/mol | < -1 kcal/mol
SAGGSAGGSAGGVKPGEVLPDGRLLVTWDEETNELTVYFEDTETITLKAPPPVVVSPEDLSAGGSAGGSAGG [r7_522_TrROS_Hall] | 0.0426 ± 0.11 kcal/mol | -0.614 ± 0.46 kcal/mol
SAGGSAGGSAGKEIHIPFPDGDTPEQAKKFAKEIADMLAQKNGKPIKVDKIEIIPPEQWPSAGGSAGGSAGG [r17_68_TrROS] | -0.546 ± 0.11 kcal/mol | -0.804 ± 0.34 kcal/mol
SAGGSAGGSAGKKRKIEINIIVPPEGAKQMAKMIKDELAQRNRDVDIEIKIIPVPPGQPLSAGGSAGGSAGG [r11_973_TrROS] | 0.434 ± 0.16 kcal/mol | < -1 kcal/mol
SAGGSAGGSAGMKPGQEVRVEVPVPNNGKKIKIPVYVPPGYTPKQAKNMAIMMAKMIREMSAGGSAGGSAGG [r11_355_TrROS] | 0.516 ± 0.072 kcal/mol | 0.0699 ± 0.096 kcal/mol
SAGGSAGGSAGMKPGQVVIYKIKIPLPDDGEPLFEIPIMYPVGMPEEQAKDFAKEFADKFSAGGSAGGSAGG [r11_516_TrROS] | -0.41 ± 0.12 kcal/mol | -0.586 ± 0.24 kcal/mol
SAGGSAGGSAGMLLLTFPERGISYEIKLGDKEEEREADPEEVEKLIAELPNYEVKEVELLSAGGSAGGSAGG [r11_57_JUSTAS] | 0.559 ± 0.1 kcal/mol | 0.288 ± 0.26 kcal/mol
SAGGSAGGSAGMPLPIKTLTEVSTVEGVGITLTALDNGLVIVEKSDGKVTVIPLSAYEAQSAGGSAGGSAGG [r11_254_JUSTAS] | 0.643 ± 0.04 kcal/mol | -0.0335 ± 0.073 kcal/mol

Sequence | folding stability dG unfold [1] | folding stability dG unfold [2]
SAGGSAGGSAGMSPNIVSYETVESDKNGNIIKKTTYLYSDNTIITETFSPKKKKKIQTFSKESAGGSAGGSA [r18_302_JUSTAS] | -0.434 ± 0.29 kcal/mol | < -1 kcal/mol
SAGGSAGGSAGMYTVSPVGSGGGGSMIRIENPETGEVIELDFDSEEEAAAAAEELKEKLASAGGSAGGSAGG [r11_848_JUSTAS] | 0.343 ± 0.043 kcal/mol | -0.22 ± 0.17 kcal/mol
SAGGSAGGSAGNIAERLQEAFPDYGIEVTDITPNGSITVTSRGPPGHRKKIQKAVKELLNSAGGSAGGSAGG [r11_418_TrROS] | -0.879 ± 0.57 kcal/mol | < -1 kcal/mol
SAGGSAGGSAGPGEPVPIRLKIYGPNGQPHTHPFPVKNPEEFKDNLRFPVPNGWAVEIEYSAGGSAGGSAGG [r11_671_TrROS] | -0.719 ± 0.37 kcal/mol | < -1 kcal/mol
SAGGSAGGSAGPVISKSEVESTEIIFSYNNKHEITVKKVKKTITTTIPPVKLKPDGTPILSAGGSAGGSAGG [r11_558_JUSTAS] | -0.803 ± 0.51 kcal/mol | -0.349 ± 0.54 kcal/mol
SAGGSAGGSAGSKEKLEEEAKAKGRPVTPLPDGTLKVETVDPNKGTASTTVIDPETAEKLSAGGSAGGSAGG [r11_994_JUSTAS] | -0.626 ± 0.058 kcal/mol | < -1 kcal/mol
SAGGSAGGSAGSMPIVLRAEFPSNDETVEIPVTSPEEAERVAQELAAQPDWPLEKVDFGGSAGGSAGGSAGG [r11_951_JUSTAS] | 0.414 ± 0.064 kcal/mol | < -1 kcal/mol
SAGGSAGGSAGSPPGSTTLRAETVVVELPAAEAYTPEGERVELPRVIVEETVERELEAGLSAGGSAGGSAGG [r11_907_JUSTAS] | 0.427 ± 0.043 kcal/mol | -0.216 ± 0.31 kcal/mol
SAGGSAGGSAGSVEEIESPDGTKTLVTKEPDSIKTTVTKPGGIPTLVTIDSKTGKWSVSLSAGGSAGGSAGG [r11_590_JUSTAS] | -0.595 ± 0.24 kcal/mol | -0.714 ± 0.63 kcal/mol
SAGGSAGGSAGSYEFDPSKSALVRVTLQPPDGVPVEIEIPVEELEEILPGDRPVLSIEVSSAGGSAGGSAGG [r17_449_JUSTAS] | 0.0674 ± 0.14 kcal/mol | -0.838 ± 0.51 kcal/mol
SAGGSAGGSAGTKEYEVKVGDKIVRISETPDSRVIDYPETDFKKEFSSDFPGKPIAEYLASAGGSAGGSAGG [r11_648_TrMRF] | -0.781 ± 0.49 kcal/mol | < -1 kcal/mol
SAGGSAGGSAGTVIYIDPETDMARVLVPDADGVLVDERAVPPDQLPDVLSQGNFTVVPAPSAGGSAGGSAGG [r11_159_TrMRF] | -0.327 ± 0.36 kcal/mol | -0.943 ± 0.84 kcal/mol
SAGGSAGGSAGVELPPSLSAEVTPVPGKPGLSRVTITLPDGVVRTIDLERKGDKWIVNPRSAGGSAGGSAGG [r11_177_JUSTAS] | -0.0818 ± 0.14 kcal/mol | < -1 kcal/mol
SAGGSAGGSAMILVPKEKLEEAAKKLNLNIVEVKPVPPGIEVAEVKVEGSEEQKKAFLEALLSAGGSAGGSA [r18_175_JUSTAS] | 0.216 ± 0.082 kcal/mol | 0.0149 ± 0.2 kcal/mol
SAGGSAGGSAMKPERIELPGNEVAVIEKVPEAGVYIVTFKKPEGDEPLGEKIFKPDEIDLKLESAGGSAGGS [r20_190_JUSTAS] | -1.17 ± 0.24 kcal/mol | < -1 kcal/mol
SAGGSAGGSAMLTKTIKLPNGKPASVTITTLSEGSSPGSSVDPKLVINADPNIPKEIVDKLLSAGGSAGGSA [r18_272_JUSTAS] | -0.624 ± 0.077 kcal/mol | -0.685 ± 0.13 kcal/mol
SAGGSAGGSAMTPDELKDNFPNMPVEPRPLNNSTQWKIEMPGGMRIEIQYDPGKPKIDIEEGSAGGSAGGSA [r18_13_TrROS] | -0.039 ± 0.064 kcal/mol | -0.622 ± 0.23 kcal/mol
SAGGSAGGSAPLEELLDVIRSVPANTRAEFPIIVETETGYVPYIARVENPEPGGALIEIEKASAGGSAGGSA [r18_493_TrMRF] | -0.258 ± 0.11 kcal/mol | < -1 kcal/mol
SAGGSAGGSAPPPLPPDAVVTIPNPGSLEEVKKLAEKLREEHGIKKIKITVEPNSVTLTVASAGGSAGGSAG [r3_73_JUSTAS] | 0.476 ± 0.15 kcal/mol | < -1 kcal/mol
SAGGSAGGSASLPEKLAQEAKEKILKENPDVEVTEIVVTKLPPEKYTVTIKTPDGKTETIPLSAGGSAGGSA [r18_423_JUSTAS] | -0.00229 ± 0.023 kcal/mol | -0.308 ± 0.1 kcal/mol
SAGGSAGGSASSPSSPVKVTVTVTAPDSLVKTITVTKTPEGVIDLVLPSDIPSDYKITIIESAGGSAGGSAG [r3_44_JUSTAS] | 0.0537 ± 0.08 kcal/mol | -0.699 ± 0.51 kcal/mol
